Source: US20210070875A1 (SHANGHAI PHARMAEXPLORER, published 2021)
Residue numbers refer to the chain shown, from its start.

T1: human C5aR (human, UniProt P21730 1-350)
T1 chain: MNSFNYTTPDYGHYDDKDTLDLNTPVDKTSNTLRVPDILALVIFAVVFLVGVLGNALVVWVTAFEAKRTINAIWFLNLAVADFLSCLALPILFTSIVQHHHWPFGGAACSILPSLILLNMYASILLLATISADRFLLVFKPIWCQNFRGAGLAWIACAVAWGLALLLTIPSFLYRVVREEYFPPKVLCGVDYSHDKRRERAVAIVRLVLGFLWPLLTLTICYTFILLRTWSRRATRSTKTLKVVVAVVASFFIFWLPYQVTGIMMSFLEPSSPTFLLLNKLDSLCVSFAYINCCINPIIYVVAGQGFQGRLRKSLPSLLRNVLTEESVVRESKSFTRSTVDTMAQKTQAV

B1: 5F8E2C11 (antibody, V domains shown)
VH: QVQLRQSGPGLVQPSQSLSITCTVSGFSLTSYGVHWVRQSPGKGLEWLGVIWSGGSTDYNAAFISRLSISKDYSKSQIFLTMNSLQTDDTAIYYCARNSRLGNCFDYWGQGTTLTVSS
VL: DIVMSQSPSSLAVSAGEKVTMSCKSSQSLLNSRTRKNYLAWYQQKPGQSPKLLIYWASTRESGVPDRFTGSGSGTDFTLTISSVQAEDLAVYYCKQSYNLPAFGGGTKLEIK
B2: 9D5A12G7 (antibody, V domains shown)
VH: QVQLKQSGPGLVQPSQSLSITCTVSGFSLTSYGVHWVRQSPGKGLEWLGVIWSGGSTDYNAAFISRLSISKDNSKSQVFFKMNSLQADDTAIYYCARNGLLGNAMDYWGQGTSVTVSS
VL: B1 VL with N31S, A86T, P101L, A102T, G105A, K108T, I111L
B3: 43E8F5B6 (antibody, V domains shown)
VH: EVQLQQSGPELVKPGASVKISCKASGYTFTDYYMSWMKQSHGKSLEWIGDINPNNGDNIYNQKFKGKATLTVDRSSSTAYMDLRSLTSEDSAVYYCARWYYYVSSFSYWYFDVWGTGTTVTVSS
VL: EIVLTQSPTTMAASPGEKITITCSATSSINSNYLHWYQQKPGFSPKLLIYRTSNLASGVPARFSGSGSGTSYSLTIGTMEAEDVATYYCQQGRTIPRTFGSGTKLEIK
B4: 2A12B2B2 (antibody, V domains shown)
VH: QVQLQQPGADLVKPGASVKMSCKASGYILTTYWITWVKQRPGQGLEWIGDIHPGSGSTKYNEKFKSKATLTVDTSSSTAYMQLTRLSSEDSAVYYCARRDYWGQGTTLTVSS
VL: DIQMTQTTSSLSASLGDKVTISCRASQDISNYLSWYQQKPDGTVKLLIYWISRLHSGVPSRFSGSGSGTDFSLTISNLEQEDIATYFCQQGNSLPPTFGGGTKLEVK
B5: 8B5D1A9 (antibody, V domains shown)
VH: QVQLKQSGAELVKPGASVKISCKTSGYIFTDYYINWMKQRPGQGLEWIGKIGPGSGTTFYNEKFKGKATLTADKSSTTLYMQLSSLTAEDSAVYFCTRRGYYSSSYFYWGQGTTLTVSS
VL: DIVMTQSPSSLSVSAGEKVIMSCKSSQSLLNSERQKNYLAWYQQKPGQSPKLLIYGASTRESGVPDRFTGSGSGTDFTLTISSVQAEDLAVYYCLNDHSYPLTFGAGTKLELK
B6: 42B5G7D1 (antibody, V domains shown)
VH: QVQLQQSGPELVKPGASVKISCKASGYVFSNSWMNWVKQRPGKGLEWIGRIDPGDGDTKYNGKFKGKATLTADKSSSTAYMQLSSLTSEDSAVYFCVRFYYGSNYVGYYFDYWGQGTTLTVSS
VL: DVLMTQTPLSLPVSLGDQASISCRSSQSIVQSNGNTYLEWYLQKPGQSPKLLIYKVSNRFSGVPDRFSGSGSGTDFTLKISRVEAEDLGVYYCFQGSLVPPTFGGGTKLEIK
B7: 46H2A11C7 (antibody, V domains shown)
VH: QVQLKQSGAELVKPGASVKISCRASGYTFTDYFINWVKQRPGQGLEWIGKIGPGSGNIYQNEKFKDKATLTTDTSSSTAYMQLSSLTSEDSAVYFCARWGIQRGWGQGTTLTVSS
VL: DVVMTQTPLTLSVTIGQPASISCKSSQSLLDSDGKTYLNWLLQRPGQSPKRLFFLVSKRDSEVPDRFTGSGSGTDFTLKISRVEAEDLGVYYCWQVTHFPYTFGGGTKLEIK

Biological target: T1, human C5aR
Test: cell-based or functional assay
Also: test concentration or dose not given here.

Q: With B1 as the binder, how does the “C5a-induced human neutrophil migration, Celltiter-Glo fluorescence intensity value, Parallel sample 1” value read?
A: 575 fluorescence intensity

Q: And the “C5a-induced human neutrophil migration, Celltiter-Glo fluorescence intensity value, Parallel sample 2” value?
A: 429 fluorescence intensity

Q: And the “C5a-induced human neutrophil migration, Celltiter-Glo fluorescence intensity value, Parallel sample 3” value?
A: 400 fluorescence intensity

Q: What about the “C5a-induced human neutrophil migration, Celltiter-Glo fluorescence intensity value, Parallel sample 4” value of the same binder?
A: 313 fluorescence intensity

Q: Which “C5a-induced human neutrophil migration, Celltiter-Glo fluorescence intensity value, Parallel sample 1” value does the source give for B2 here?
A: 175 fluorescence intensity

Q: What about the “C5a-induced human neutrophil migration, Celltiter-Glo fluorescence intensity value, Parallel sample 2” value of the same binder?
A: 211 fluorescence intensity

Q: What about the “C5a-induced human neutrophil migration, Celltiter-Glo fluorescence intensity value, Parallel sample 3” value of the same binder?
A: 575 fluorescence intensity

Q: What about the “C5a-induced human neutrophil migration, Celltiter-Glo fluorescence intensity value, Parallel sample 4” value of the same binder?
A: 611 fluorescence intensity

Q: Which results are given for B3?
A: C5a-induced human neutrophil migration, Celltiter-Glo fluorescence intensity value, Parallel sample 1: 844 fluorescence intensity; C5a-induced human neutrophil migration, Celltiter-Glo fluorescence intensity value, Parallel sample 2: 808 fluorescence intensity; C5a-induced human neutrophil migration, Celltiter-Glo fluorescence intensity value, Parallel sample 3: 706 fluorescence intensity; C5a-induced human neutrophil migration, Celltiter-Glo fluorescence intensity value, Parallel sample 4: 757 fluorescence intensity

Q: With B4 as the binder, how does the “C5a-induced human neutrophil migration, Celltiter-Glo fluorescence intensity value, Parallel sample 1” value read?
A: 670 fluorescence intensity

Q: What about the “C5a-induced human neutrophil migration, Celltiter-Glo fluorescence intensity value, Parallel sample 2” value of the same binder?
A: 597 fluorescence intensity

Q: And the “C5a-induced human neutrophil migration, Celltiter-Glo fluorescence intensity value, Parallel sample 3” value?
A: 233 fluorescence intensity

Q: What about the “C5a-induced human neutrophil migration, Celltiter-Glo fluorescence intensity value, Parallel sample 4” value of the same binder?
A: 204 fluorescence intensity

Q: Which “C5a-induced human neutrophil migration, Celltiter-Glo fluorescence intensity value, Parallel sample 1” value does the source give for B5 here?
A: 655 fluorescence intensity

Q: What about the “C5a-induced human neutrophil migration, Celltiter-Glo fluorescence intensity value, Parallel sample 2” value of the same binder?
A: 713 fluorescence intensity

Q: And the “C5a-induced human neutrophil migration, Celltiter-Glo fluorescence intensity value, Parallel sample 3” value?
A: 706 fluorescence intensity

Q: And the “C5a-induced human neutrophil migration, Celltiter-Glo fluorescence intensity value, Parallel sample 4” value?
A: 750 fluorescence intensity

Q: B6 was tested. Which “C5a-induced human neutrophil migration, Celltiter-Glo fluorescence intensity value, Parallel sample 1” value did it give?
A: 1200 fluorescence intensity

Q: What about the “C5a-induced human neutrophil migration, Celltiter-Glo fluorescence intensity value, Parallel sample 2” value of the same binder?
A: 1480 fluorescence intensity

Q: What about the “C5a-induced human neutrophil migration, Celltiter-Glo fluorescence intensity value, Parallel sample 3” value of the same binder?
A: 298 fluorescence intensity

Q: And the “C5a-induced human neutrophil migration, Celltiter-Glo fluorescence intensity value, Parallel sample 4” value?
A: 335 fluorescence intensity

Q: For B7, which “C5a-induced human neutrophil migration, Celltiter-Glo fluorescence intensity value, Parallel sample 1” value is on record?
A: 1460 fluorescence intensity

Q: And the “C5a-induced human neutrophil migration, Celltiter-Glo fluorescence intensity value, Parallel sample 2” value?
A: 1510 fluorescence intensity

Q: And the “C5a-induced human neutrophil migration, Celltiter-Glo fluorescence intensity value, Parallel sample 3” value?
A: 1930 fluorescence intensity

Q: And the “C5a-induced human neutrophil migration, Celltiter-Glo fluorescence intensity value, Parallel sample 4” value?
A: 2040 fluorescence intensity
